Test results taken from patent publication US8252554B2, “Halohydrin dehalogenases and related polynucleotides” (Codexis, Inc., priority 2003, dated 2012).
Changes are numbered by the printed parent chain.

What was measured:
Type in all cases: biochemical
HHDH = HHDH (Agrobacterium tumefaciens, UniProt Q93D82); experiment: Inhibition of HHDH by ECAA; conditions: inhibitor of HHDH
[1] = Example 7 manufacture of ethyl (R)-4-cyano-3-hydroxybutyrate with HHDH cell lysate; conditions: 40° C., pH 7, 17 hours
Description: To a 3-necked jacketed 3 L flask equipped with a mechanical stirrer and connected to an automatic titrater by a pH electrode and a feeding tube for addition of base, was charged H2O (1200 mL), NaCN (37.25 g) and NaH2PO4 (125 g) to bring the solution to pH 7. The water circulator was set to 40° C. After 10 minutes, halohydrin dehalogenase of SEQ ID NO: 32 as cell lysate (250 mL) was added. The reaction mixture was allowed to stir for 5 minutes. Using an addition funnel, ethyl (S)-4-chloro-3-hydroxybutyrate (45 g) was slowly added over 1 hour. The pH was maintained at 7 by the automatic titrater by the addition of 10 M NaOH (27 mL) over 17 hours. […] Celite™ (16 g) was added to the flask, which was then connected to a diaphragm pump, whose exhaust is bubbled into 5M NaOH (200 mL), to remove HCN. The mixture was heated to 60° C. under 100 mm Hg pressure. After 1 hour, a submerged air bubbler was added to the solution to aid the removal of the HCN. After 3 hours, an HCN detector indicated less than 5 ppm HCN in the off-gas. The mixture was allowed to cool to room temperature, then filtered through a Celite™ pad. […] Enantiomeric composition can be readily characterized by using the gas chromatography method described in Example 6, above, and using methods that are known in the art.

[2] = Example 5A gas chromatography assay of HHDH activity (conversion of ECHB to ethyl (R)-4-cyano-3-hydroxybutyrate); conditions: ECHB substrate; Activity of Improved HHDH Enzyme/Activity of Agrobacterium sp. HHDH (SEQ ID NO: 2)
Description: To a solution of ethyl (S)-4-chloro-3-hydroxybutyrate (10 mM-100 mM) in 500 mM HCN (500 mM NaCN adjusted to pH 7.0 with phosphoric acid) was added the halohydrin dehalogenase enzyme as a predissolved solution in the same buffer. Over time, aliquots of the mixture were withdrawn and extracted with three volumes of ethyl acetate. The organic layer was then analysed for ethyl (R)-4-cyano-3-hydroxybutyrate by gas chromatography (GC), as described hereinbelow in Example 6. Samples were taken at various time points, and the peak area of the product cyanohydrin, ethyl (R)-4-cyano-3-hydroxybutyrate, was plotted as a function of time. Time points are selected at low conversion, for example, less than 5% conversion, to avoid the effect of product inhibition (e.g., 0.5%, 1.0%, 1.5%, 2.0%, 2.5%, 3.0%, etc.). The peak areas were converted to concentration units using a standard curve that was prepared for the ethyl (R)-4-cyano-3-hydroxybutyrate. Activity of the halohydrin dehalogenase was determined in units of μmol (cyanohydrin produced)/min/mg (total halohydrin dehalogenase catalyst). Relative activities of some of the clones are shown in Table 2, computed as Activity of Improved HHDH Enzyme/Activity of Agrobacterium sp. HHDH (SEQ ID NO: 2).
The ethyl (R)-4-cyano-3-hydroxybutyrate produced in Example 5A was analyzed using gas chromatography with flame ionization (FID) detection using an Agilent® HP-5™ column, 30 m long, 0.32 mm inner diameter, film 0.25 μm, using the following program: 1 minute at 100° C., 5° C./minute for 10 minutes; 25° C./minute for 2 minutes; then 2 minutes at 200° C. Inlet and outlet temperatures were both 300° C., and the flow rate was 2 ml/minute. Under these conditions, ethyl (R)-4-cyano-3-hydroxybutyrate elutes at 6.25 minutes and ethyl (S)-4-chloro-3-hydroxybutyrate elutes at 4.5 minutes. Chemical purity of the species was measured using the integrated peak areas from the gas chromatography results.

CCOC(=O)CC(=O)CCl [ECAA, Ethyl-4-chloroacetoacetate]
Ki (HHDH): ~70 µM

B1: SEQ ID NO: 32: native halohydrin dehalogenase from Agrobacterium radiobacter AD1 (hheC), expressed from SEQ ID NO. 31 (protein)
chain: MSTAIVTNVKHFGGMGSALRLSEAGHTVACHDESFKQKDELEAFAETYPQLKPMSEQEPAELIEAVTSAYGQVDVLVSNDIFAPEFQPIDKYAVEDYRGAVEALQIRPFALVNAVASQMKKRKSGHIIFITSATPFGPWKELSTYTSARAGACTLANALSKELGEYNIPVFAIGPNYLHSEDSPYFYPTEPWKTNPEHVAHVKKVTALQRLGTQKELGELVAFLASGSCDYLTGQVFWLAGGFPMIERWPGMPE
conversion to product by gas chromatography [1]: complete conversion to product

B2: SEQ ID NO: 6: improved HHDH (halohydrin dehalogenase) polypeptide of the Sequence Listing (protein)
chain: B1 chain with A24T
Fold Improvement in HHDH Activity over Aerobacterium sp. HHDH (SEQ ID NO: 2) [2]: 1.6 Fold

B3: SEQ ID NO: 30: improved HHDH (halohydrin dehalogenase) polypeptide of the Sequence Listing (protein)
chain: B1 chain with A4V
Fold Improvement in HHDH Activity over Aerobacterium sp. HHDH (SEQ ID NO: 2) [2]: 2.8 Fold

B4: SEQ ID NO: 8: improved HHDH (halohydrin dehalogenase) polypeptide of the Sequence Listing (protein)
chain: B1 chain with R20S, A29T
Fold Improvement in HHDH Activity over Aerobacterium sp. HHDH (SEQ ID NO: 2) [2]: 1.8 Fold

B5: SEQ ID NO: 4: improved HHDH (halohydrin dehalogenase) polypeptide of the Sequence Listing (protein)
chain: B1 chain with K36N, F44L, A45P, S55R
Fold Improvement in HHDH Activity over Aerobacterium sp. HHDH (SEQ ID NO: 2) [2]: 1.5 Fold
